Data on five molecules can be found in patent US20050064518A1 (PURDUE PHARMA L P, published 2005).

B1: monoclonal antibody 776.1 (antibody, V domains shown)
VH: EVQLQQSGPELVKPGASVKISCKASGYTFTDYNIHWVKQSHGKILEWIGYIYPYNGVSDYNQNFKSKATLIVDNSSNTAYMELRSLTSEDSAVYYCARWDFGSGYYFDYWGQGTTLTVSS
VL: QIVLSQSPAILFASPGETVTMTCRASSSVIYMCWNQQKPGSSPKPWIYGTSTLASGVPTRFSGSGSGTSYSLTISRVEAEDAATYYCQQWSSNPFTFGSGTKLEI
B2: OC125 (antibody)
chain 1: QVQLQESGPELVKPGASVKISCKASGYTFTDYNMHWVKQSHGKSLEWIGYIYPYNGDTGYNQKFRNKASLTVDTSSSTAYMELRSLTSEDSAVYYWARSGGFWYFDVWGQGGTTVTVSS
chain 2: DIQMTQSPAILSASPGEKVTMTCRATPSVSYMHWYQQKPGSSPKPLIYTTSNLASGVPARFSGGGSGTSYSLTVSRVEVEDAATYYCQQWSRSPPTFGAGTKLEIK
B5: O772P 3-repeat recombinant protein (other)
chain: AAQPARRARRTKLFTHRSSVSTTSTPGTPTVYLGASKTPASIFGPSAASHLLILFTLNFTITNLRYEENMWPGSRKFNTTERVLQGLLRPLFKNTSVGPLYSGCRLTLLRPEKDGEATGVDAICTHRPDPTGPGLDREQLYLELSQLTHSITELGPYTLDRDSLYVNGFTHRSSVPTTSTGVVSEEPFTLNFTINNLRYMADMGQPGSLKFNITDNVMKHLLSPLFQRSSLGARYTGCRVIALRSVKNGAETRVDLLCTYLQPLSGPGLPIKQVFHELSQQTHGITRLGPYSLDKDSLYLNGYNEPGPDEPPTTPKPATTFLPPLSEATTAMGYHLKTLTLNFTISNLQYSPDMGKGSATFNSTEGVLQHLLRPLFQKSSMGPFYLGCQLISLRPEKDGAATGVDTTCTYHPDPVGPGLDIQQLYWELSQLTHGVTQLGFYVLDRDSLFINGYAPQNLSIRGEYQINFHIVNWNLSNPDPTSSEYITLLRDIQDKVTTLYKGSQLHDTFRFCLVTNLTMDSVLVTVKALFSSNLDPSLVEQVFLDKTLNASFHWLGSTYQLVDIHVTEMESSVYQPTSSSSTQHFYLNFTITNLPYSQDKAQPGTTNYQRNKRNIEDALNQLFRNSSIKSYFSDCQVSTFRSVPNRHHTGVDSLCNFSPLARRVDRVAIYEEFLRMTRNGTQLQNFTLDRSSVLVDGYSPNRNEPLTGNSADIQHSGGRSSLEGPRFEQKLISEEDLNMHTGHHHHHH
notes: Repeats are residues 14-452 of the entry

For experiment [1], the target named is B5. Description: ELISA, plate-bound O772P 3-repeat. The protocol:
On the next day, the plates were washed with 200 μl 1×PBST (1× phosphate-buffered saline (PBS), 0.05% Tween 20) three times and blocked with 100 μl of 1×PBST containing 1% bovine serum albumin (BSA) for 2 hours at 37° C. […] After 1 hour incubation at 37° C., the plates were then washed with 1×PBST three times. For signal detection, 100 μl of HRP (horseradish peroxidase)-conjugated sheep anti-mouse IgG (1:2000 dilution into 1×PBST+1% BSA; Amersham Biosciences) was added to each well and incubated for 1 hour at 37° C. The plates were again washed three times with 1×PBST. Finally, 100 μl¹ of a mixture of TMB (3,3′, 5,5′-tetramethylbenzidine) substrate and H₂O₂ (1:1 ratio, KPL Kirkguard Perry Laboratories) was added into each well and after a 5 minute incubation, the absorbance was measured at 405 nm with a plate reader (Molecular Devices Corp., Sunnyvale, Calif.). The assay was done in triplicate for each selected O772P hybridoma-produced antibody and data was collected and analyzed as a kinetic assay, measured over a 5 minute time period. Average values were calculated and presented. Controls for blank and individual reagents were also included in each experiment.
For orientation: An ELISA detects its analyte on a solid surface through an enzyme-linked reagent.

The target in experiment [2] is T1, CA 125/O772P on OVCAR-3 cells (human, UniProt Q8WXI7 1-14507).
T1 construct: whole, on cells
Description: flow cytometry, OVCAR-3 cells; Ab 2 µg/ml. On the technique in general: Flow cytometry measures light scatter and fluorescence of single cells or particles in a stream.

The target in experiment [3] is B5. Description: BIAcore SPR, O772P 3-repeat immobilized, mAb injected. Here is the method:
A […] BIAcore biosensor chip was docked into the BIAcore X instrument and activated with 55 μl of 1:1 NHS/EDC at room temperature. O772P 3-repeat region protein and BSA at 10 μg/ml in 0.05 M acetate buffer, pH 4.5, were immobilized onto the flow cell (FC) 1 and FC2 of the activated chip, respectively, at a flow rate of 5 μl/min to achieve a resonance response of 1000-2000 RU. The chip was then blocked by injection of 55 μl of ethanolamine-HCl, pH 8.5, and followed with washing 5 times with 50 mM NaOH-1 M NaCl. To measure the binding of anti-0722P mAbs to the O772P 3-repeat region immobilized to the chip, 30 μl of anti-0722P mAbs at varying concentrations in BIAcore running buffer (HBS-EP, Cat. #1001-080, BIAcore, Piscataway, N.J.) were injected over the sensor surface at a flow rate of 5 μl/min. Following completion of the injection phase, dissociation was monitored in BIAcore running buffer at the same flow rate for 360 seconds. The surface was regenerated between injections using 30 μl of 50 mM NaOH-1 M NaCl. Individual sensorgrams were analyzed using BIAevaluation.
Background: In SPR one partner is held on a chip, and binding of the other changes the refractive index at the surface.

The target in experiment [4] is B5. Description: ELISA competition, plate-bound O772P 3-repeat; no competitor. The protocol: (§1) On the next day, the plates were washed with 200 μl 1×PBST (1× phosphate-buffered saline (PBS), 0.05% Tween 20) three times and blocked with 100 μl of 1×PBST containing 1% bovine serum albumin (BSA) for 2 hours at 37° C. […] After 1 hour incubation at 37° C., the plates were then washed with 1×PBST three times. For signal detection, 100 μl of HRP-conjugated sheep anti-mouse IgG (1:2000 dilution into 1×PBST+1% BSA, Amersham Biosciences) was added to each well and incubated for 1 hour at 37° C. The plates were washed again with 1×PBST three times. Finally, 100 μl¹ of a mixture of TMB substrate and H₂O₂ (1:1 ratio, KPL) was added into each well and the absorbance was measured at 405 nm with a plate reader (Molecular Devices Corp., Sunnyvale, Calif.). The assay was done in triplicate for each selected antibody and average values were calculated and presented. The percent inhibition compared to no competition was calculated for individual antibodies based on average values. Controls for blank and individual reagents were also included in each experiment.

Experiment [5] addresses T2, O772P 3-repeat TM on transfected NIH/3T3 cells (human).
T2 construct: also called NIH/3T3 O772P 3-repeat
T2 chain: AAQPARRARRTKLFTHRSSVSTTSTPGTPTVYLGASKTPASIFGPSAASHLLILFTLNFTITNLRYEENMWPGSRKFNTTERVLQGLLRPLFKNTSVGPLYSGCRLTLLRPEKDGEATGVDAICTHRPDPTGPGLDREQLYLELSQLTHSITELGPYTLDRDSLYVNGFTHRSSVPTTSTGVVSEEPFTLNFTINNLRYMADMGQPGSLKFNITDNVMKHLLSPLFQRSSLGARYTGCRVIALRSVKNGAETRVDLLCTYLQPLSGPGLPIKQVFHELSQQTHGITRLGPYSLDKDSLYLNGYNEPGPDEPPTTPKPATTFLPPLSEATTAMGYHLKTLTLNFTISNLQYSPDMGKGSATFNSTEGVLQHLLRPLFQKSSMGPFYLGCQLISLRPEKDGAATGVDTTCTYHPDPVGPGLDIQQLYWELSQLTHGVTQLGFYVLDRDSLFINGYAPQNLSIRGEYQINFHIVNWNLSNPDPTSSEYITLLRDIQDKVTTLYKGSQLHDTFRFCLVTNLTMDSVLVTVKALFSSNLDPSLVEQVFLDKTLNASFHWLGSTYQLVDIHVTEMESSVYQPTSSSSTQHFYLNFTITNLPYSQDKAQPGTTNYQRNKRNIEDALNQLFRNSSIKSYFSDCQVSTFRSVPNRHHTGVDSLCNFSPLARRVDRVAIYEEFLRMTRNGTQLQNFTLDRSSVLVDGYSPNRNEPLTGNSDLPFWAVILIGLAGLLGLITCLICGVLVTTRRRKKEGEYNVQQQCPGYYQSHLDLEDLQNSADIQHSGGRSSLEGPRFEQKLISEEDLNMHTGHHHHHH
The experiment in a line: flow cytometry, NIH/3T3 cells expressing O772P 3-repeat TM; Ab 2 µg/ml.

Experiment [6] concerns the target B5. The experiment in a line: ELISA competition, plate-bound O772P 3-repeat; competitor shed CA 125/O772P. Here is the method:
as §1

Experiment [7] has as its target B5. The experiment in a line: ELISA competition, plate-bound O772P 3-repeat; competitor soluble O772P 3-repeat. Here is the method:
as §1

For the experiment “OC125”, the target named is B2. The experiment in a line: ELISA competition: soluble O772P 3-repeat at 10x w/w excess against antibody binding to plate-bound O772P 3-repeat. Here is the method:
as §1

In experiment [8] the target is T3, monoclonal antibody 117.1.
T3 construct: Murine hybridoma antibody
Described as above. Here is the method:
as §1

In experiment [9] the target is T4, monoclonal antibody 368.1.
T4 construct: Murine hybridoma antibody
Described as above. Here is the method: as §1

Experiment [10] deals with T5, monoclonal antibody 501.1.
T5 construct: Murine hybridoma antibody
The experiment is described as above. Here is the method:
as §1

The target in experiment [11] is B1. Described as above. The protocol: as §1

T4 sequence (VH, as listed by the source, chain 1 of 2): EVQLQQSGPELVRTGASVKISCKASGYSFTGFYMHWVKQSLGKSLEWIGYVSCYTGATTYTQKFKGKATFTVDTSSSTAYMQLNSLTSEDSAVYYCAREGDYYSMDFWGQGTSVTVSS
T4 sequence (VL, as listed by the source, chain 2 of 2): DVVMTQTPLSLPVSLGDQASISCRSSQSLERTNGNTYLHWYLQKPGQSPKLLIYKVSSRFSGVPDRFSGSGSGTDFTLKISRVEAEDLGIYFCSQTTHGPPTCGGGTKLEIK
T5 sequence (VH, as listed by the source, chain 1 of 2): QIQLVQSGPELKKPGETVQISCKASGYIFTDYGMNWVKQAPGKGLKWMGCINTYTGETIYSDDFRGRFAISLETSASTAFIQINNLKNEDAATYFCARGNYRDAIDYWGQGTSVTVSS
T5 sequence (VL, as listed by the source, chain 2 of 2): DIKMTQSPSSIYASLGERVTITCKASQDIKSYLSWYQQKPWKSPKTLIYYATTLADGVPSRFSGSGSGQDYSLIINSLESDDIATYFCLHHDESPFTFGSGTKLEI
T3 sequence (VH, as listed by the source, chain 1 of 2): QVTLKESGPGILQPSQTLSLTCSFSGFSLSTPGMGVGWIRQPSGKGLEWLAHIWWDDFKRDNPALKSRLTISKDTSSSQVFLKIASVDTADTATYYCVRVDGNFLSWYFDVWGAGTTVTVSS
T3 sequence (VL, as listed by the source, chain 2 of 2): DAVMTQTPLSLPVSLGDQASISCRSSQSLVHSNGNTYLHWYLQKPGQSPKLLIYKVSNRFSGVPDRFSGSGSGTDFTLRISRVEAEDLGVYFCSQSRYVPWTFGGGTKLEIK

One may read the Kd as a measure of binding affinity in units of concentration. B1: the “absorbance (OD)” value in [1] came to 1.18 OD. In addition, the “absorbance (OD)/µg Ab” value in experiment [1] was 29 OD/µg Ab. The entries for the “% positive cells” value in [2] and in [5] were 94% and 86%, respectively. Moreover, the Kd in experiment [3] came to 0.4 nM. The absorbance in [4] is 1.18 OD. In [6], the “absorbance w/shed CA 125/O772P competitor (25-fold w/w excess)” value turned out to be 0.977 OD. The “absorbance w/O772P 3-repeat competitor (10 x w/w excess)” value in [7] amounted to 0.077 OD.

For B2, in experiment [1], the “absorbance (OD)” value turned out to be 0.73 OD and the “absorbance (OD)/µg Ab” value worked out at 18 OD/µg Ab. Also, in experiment [3], the dissociation constant Kd was determined as 4 nM. The absorbance in [4] stood at 0.73 OD. Besides, the “absorbance w/shed CA 125/O772P competitor (25-fold w/w excess)” value in experiment [6] stood at 0.074 OD. Further, the “absorbance w/O772P 3-repeat competitor (10 x w/w excess)” value in experiment [7] was 0.047 OD.

B3: monoclonal antibody 725.1 (antibody, V domains shown)
VH: QIQLVQSGPELKKPGETVKISCKASGYSFTNYGMNWVKQAPGKGLKWMGWINAYIGEPTYADDFKGRFAFSLEASTHTAYLQINSLKSEDTATYFCASGGNSLDFWGQGTTLTVSS
VL: QIILSQSPAILSASPGEKVTMTCRASSSVSSIHWYQQKPESSPKPWIYATSNLASGVPVRFSGSGSGTSYTLTISRMEAADAATYYCQQWSIDPATFGGGTKLEI
notes: Murine hybridoma antibody; also called hybridoma 725.1 (ATCC PTA-5124)
Regarding B3, in experiment [3], the Kd came out at 2.6 nM.

B4: monoclonal antibody 16H9 (antibody, V domains shown)
VH: EVQLQQSGAELVKPGASVKLSCTASGFNIKDTYMHWVKQRPEQGLEWIGRIDPANGNTKYDPKFQGKATITADTSSNTAYVQLSSLTSEDTAVYYCASSDIYYGNPGGFAYWGQGTLVTVSA
VL: QIVLTQSPAIMSASLGERVTMTCTASSSVSSSYLHWYQQKPGSSPKLWIYSTSNLASGVPARFSGSGSGTSYSLTISSMEAEDAATYYCHQYHRSPFTFGSGTKLEI
notes: Murine hybridoma antibody; also called hybridoma 16H9 (ATCC PTA-5108)
In the case of B4, the Kd in experiment [3] is 3.9 nM.

As for B5, the “percent inhibition of binding” value worked out at 99% in the experiment with OC125; 94% in experiment [8]; 30% in [9]; 96% in experiment [10]; 96% in [11].
